Measured values published in the supplement of paper PMC5998384.

Legend:
HeLa Kyoto [1] = assay: solubility in G1/S (NP-40 vs SDS abundance) (log2 ratio); higher = more soluble; conditions: cell cycle stage: G1/S
HeLa Kyoto [2] = assay: melting temperature (median over replicates), in situ; higher = more thermally stable
HeLa Kyoto [3] = assay: solubility change mitosis vs G1/S (difference of NP-40 vs SDS log2 ratios) (log2 ratio difference); higher = more soluble in mitosis
HeLa Kyoto [4] = assay: thermal stability score vs G1/S (z-score of summed log2 fold changes over temperatures); higher = more thermally stable than in G1/S
[5] = cell cycle stage: early G1 (4.5 h after nocodazole release)
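Throughout, for melting temperature (median over replicates), in situ: HeLa Kyoto cells synchronized by double thymidine or nocodazole block, proteins quantified by TMT10plex mass spectrometry, three independent biological replicates.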
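Throughout, for solubility change mitosis vs G1/S (difference of NP-40 vs SDS log2 ratios): synchronized HeLa Kyoto cells (double thymidine block for G1/S, nocodazole release for mitosis), protein amounts in NP-40 versus SDS lysates quantified by mass spectrometry, three biological replicates.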
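Throughout, for solubility in G1/S (NP-40 vs SDS abundance): HeLa Kyoto cells arrested at G1/S by double thymidine block, proteins quantified by TMT10plex mass spectrometry in mild NP-40 versus SDS extracts, three biological replicates.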
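Throughout, for thermal stability score vs G1/S (z-score of summed log2 fold changes over temperatures): synchronized HeLa Kyoto cells, proteins quantified by TMT10plex mass spectrometry, three biological replicates, mitosis taken 0.5 h after nocodazole release, G1/S directly after double thymidine block.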

| Sequence | solubility in G1/S (log2) (HeLa Kyoto [1]) | melting temperature (HeLa Kyoto [2]; cell cycle stage: G1/S) [°C] | melting temperature (HeLa Kyoto [2]; cell cycle stage: mitosis) [°C] | solubility change mitosis (log2) (HeLa Kyoto [3]) | thermal stability score (HeLa Kyoto [4]; [5]) | thermal stability score (HeLa Kyoto [4]; cell cycle stage: mitosis) |
| --- | --- | --- | --- | --- | --- | --- |
| MAVLLLLLRALRRGPGPGPRPLWGPGPAWSPGFPARPGRGRPYMASRPPGDLAEAGGRALQSLQLRLLTPTFEGINGLLLKQHLVQNPVRLWQLLGGTFYFNTSRLKQKNKEKDKSKGKAPEEDEEERRRRERDDQMYRERLRTLLVIAVVMSLLNALSTSGGSISWNDFVHEMLAKGEVQRVQVVPESDVVEVYLHPGAVVFGRPRLALMYRMQVANIDKFEEKLRAAEDELNIEAKDRIPVSYKRTGFFGNALYSVGMTAVGLAILWYVFRLAGMTGREGGFSAFNQLKMARFTIVDGKMGKGVSFKDVAGMHEAKLEVREFVDYLKSPERFLQLGAKVPKGALLLGPPGCGKTLLAKAVATEAQVPFLAMAGPEFVEVIGGLGAARVRSLFKEARARAPCIVYIDEIDAVGKKRSTTMSGFSNTEEEQTLNQLLVEMDGMGTTDHVIVLASTNRADILDGALMRPGRLDRHVFIDLPTLQERREIFEQHLKSLKLTQSSTFYSQRLAELTPGFSGADIANICNEAALHAAREGHTSVHTLNFEYAVERVLAGTAKKSKILSKEEQKVVAFHESGHALVGWMLEHTEAVMKVSITPRTNAALGFAQMLPRDQHLFTKEQLFERMCMALGGRASEALSFNEVTSGAQDDLRKVTRIAYSMVKQFGMAPGIGPISFPEAQEGLMGIGRRPFSQGLQQMMDHEARLLVAKAYRHTEKVLQDNLDKLQALANALLEKEVINYEDIEALIGPPPHGPKKMIAPQRWIDAQREKQDLGEEETEETQQPPLGGEEPTWPK [SPG7] | 0.0611 | 51.2 | 51.9 | -0.102 | 2.94 | 1.55 |
| MAVRSLWAGRLRVQRLLAWSAAWESKGWPLPFSTATQRTAGEDCRSEDPPDELGPPLAERALRVKAVKLEKEVQDLTVRYQRAIADCENIRRRTQRCVEDAKIFGIQSFCKDLVEVADILEKTTECISEESEPEDQKLTLEKVFRGLLLLEAKLKSVFAKHGLEKLTPIGDKYDPHEHELICHVPAGVGVQPGTVALVRQDGYKLHGRTIRLARVEVAVESQRRL [GRPEL2] | 0.335 | – | 48.4 | -0.104 | -0.696 | 2.19 |
| MAVTALAARTWLGVWGVRTMQARGFGSDQSENVDRGAGSIREAGGAFGKREQAEEERYFRAQSREQLAALKKHHEEEIVHHKKEIERLQKEIERHKQKIKMLKHDD [ATPIF1] | 0.903 | 56.8 | 56.9 | 0.408 | 3.16 | -2.08 |
| MAVTGWLESLRTAQKTALLQDGRRKVHYLFPDGKEMAEEYDEKTSELLVRKWRVKSALGAMGQWQLEVGDPAPLGAGNLGPELIKESNANPIFMRKDTKMSFQWRIRNLPYPKDVYSVSVDQKERCIIVRTTNKKYYKKFSIPDLDRHQLPLDDALLSFAHANCTLIISYQKPKEVVVAESELQKELKKVKTAHSNDGDCKTQ [DPCD] | 0.223 | 49.9 | 49 | -0.0049 | 0.4 | 0.716 |
| MAVVAAAAGWLLRLRAAGAEGHWRRLPGAGLARGFLHPAATVEDAAQRRQVAHFTFQPDPEPREYGQTQKMNLFQSVTSALDNSLAKDPTAVIFGEDVAFGGVFRCTVGLRDKYGKDRVFNTPLCEQGIVGFGIGIAVTGATAIAEIQFADYIFPAFDQIVNEAAKYRYRSGDLFNCGSLTIRSPWGCVGHGALYHSQSPEAFFAHCPGIKVVIPRSPFQAKGLLLSCIEDKNPCIFFEPKILYRAAAEEVPIEPYNIPLSQAEVIQEGSDVTLVAWGTQVHVIREVASMAKEKLGVSCEVIDLRTIIPWDVDTICKSVIKTGRLLISHEAPLTGGFASEISSTVQEECFLNLEAPISRVCGYDTPFPHIFEPFYIPDKWKCYDALRKMINY [BCKDHB] | -0.09 | 52.6 | 52 | -0.179 | -0.96 | -1.83 |
| MAVYRAALGASLAAARLLPLGRCSPSPAPRSTLSGAAMEPAPRWLAGLRFDNRALRALPVEAPPPGPEGAPSAPRPVPGACFTRVQPTPLRQPRLVALSEPALALLGLGAPPAREAEAEAALFFSGNALLPGAEPAAHCYCGHQFGQFAGQLGDGAAMYLGEVCTATGERWELQLKGAGPTPFSRQADGRKVLRSSIREFLCSEAMFHLGVPTTRAGACVTSESTVVRDVFYDGNPKYEQCTVVLRVASTFIRFGSFEIFKSADEHTGRAGPSVGRNDIRVQLLDYVISSFYPEIQAAHASDSVQRNAAFFREVTRRTARMVAEWQCVGFCHGVLNTDNMSILGLTIDYGPFGFLDRYDPDHVCNASDNTGRYAYSKQPEVCRWNLRKLAEALQPELPLELGEAILAEEFDAEFQRHYLQKMRRKLGLVQVELEEDGALVSKLLETMHLTGADFTNTFYLLSSFPVELESPGLAEFLARLMEQCASLEELRLAFRPQMDPRQLSMMLMLAQSNPQLFALMGTRAGIARELERVEQQSRLEQLSAAELQSRNQGHWADWLQAYRARLDKDLEGAGDAAAWQAEHVRVMHANNPKYVLRNYIAQNAIEAAERGDFSEVRRVLKLLETPYHCEAGAATDAEATEADGADGRQRSYSSKPPLWAAELCVTUSS [SELO] | -0.0646 | 47.8 | 49.1 | -0.115 | 3 | 3.57 |
| MAVYVGMLRLGRLCAGSSGVLGARAALSRSWQEARLQGVRFLSSREVDRMVSTPIGGLSYVQGCTKKHLNSKTVGQCLETTAQRVPEREALVVLHEDVRLTFAQLKEEVDKAASGLLSIGLCKGDRLGMWGPNSYAWVLMQLATAQAGIILVSVNPAYQAMELEYVLKKVGCKALVFPKQFKTQQYYNVLKQICPEVENAQPGALKSQRLPDLTTVISVDAPLPGTLLLDEVVAAGSTRQHLDQLQYNQQFLSCHDPINIQFTSGTTGSPKGATLSHYNIVNNSNILGERLKLHEKTPEQLRMILPNPLYHCLGSVAGTMMCLMYGATLILASPIFNGKKALEAISRERGTFLYGTPTMFVDILNQPDFSSYDISTMCGGVIAGSPAPPELIRAIINKINMKDLVVAYGTTENSPVTFAHFPEDTVEQKAESVGRIMPHTEARIMNMEAGTLAKLNTPGELCIRGYCVMLGYWGEPQKTEEAVDQDKWYWTGDVATMNEQGFCKIVGRSKDMIIRGGENIYPAELEDFFHTHPKVQEVQVVGVKDDRMGEEICACIRLKDGEETTVEEIKAFCKGKISHFKIPKYIVFVTNYPLTISGKIQKFKLREQMERHLNL [ACSF2] | 0.27 | 49.4 | 49.8 | -0.0628 | 0.261 | 0.668 |
